We go through four molecules from patent US10766960 (dated 2020).

Common to all, as to test: SPR
For orientation: In SPR one partner is held on a chip, and binding of the other changes the refractive index at the surface.

The target of one experiment is T1, FcgRIIa R (human, UniProt P12318).
T1 chain: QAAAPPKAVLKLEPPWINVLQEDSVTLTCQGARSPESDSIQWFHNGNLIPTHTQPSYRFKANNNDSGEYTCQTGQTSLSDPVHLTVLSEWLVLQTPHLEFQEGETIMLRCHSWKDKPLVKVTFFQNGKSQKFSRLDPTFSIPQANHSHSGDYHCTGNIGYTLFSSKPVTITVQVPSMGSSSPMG

In another experiment the target is FcgRIIIa V (human, UniProt P08637).
The target of a further experiment is T2, FcgRIIa H (human, UniProt P12318).
T2 chain: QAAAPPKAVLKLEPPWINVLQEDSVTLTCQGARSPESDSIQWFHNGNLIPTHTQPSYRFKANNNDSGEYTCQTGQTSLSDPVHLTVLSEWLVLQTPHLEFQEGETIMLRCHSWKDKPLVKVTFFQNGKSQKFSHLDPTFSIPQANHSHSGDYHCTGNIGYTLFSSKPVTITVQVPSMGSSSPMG

Another experiment deals with T3, FcgRIIb (human, UniProt P31994).
T3 chain: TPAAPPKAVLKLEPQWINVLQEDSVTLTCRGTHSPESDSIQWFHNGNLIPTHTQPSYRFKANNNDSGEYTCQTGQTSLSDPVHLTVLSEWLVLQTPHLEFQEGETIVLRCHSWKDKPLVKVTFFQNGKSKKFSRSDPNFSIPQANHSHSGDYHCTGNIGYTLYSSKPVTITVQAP

Another experiment deals with T4, FcgRIa (human, UniProt P12314).
T4 chain: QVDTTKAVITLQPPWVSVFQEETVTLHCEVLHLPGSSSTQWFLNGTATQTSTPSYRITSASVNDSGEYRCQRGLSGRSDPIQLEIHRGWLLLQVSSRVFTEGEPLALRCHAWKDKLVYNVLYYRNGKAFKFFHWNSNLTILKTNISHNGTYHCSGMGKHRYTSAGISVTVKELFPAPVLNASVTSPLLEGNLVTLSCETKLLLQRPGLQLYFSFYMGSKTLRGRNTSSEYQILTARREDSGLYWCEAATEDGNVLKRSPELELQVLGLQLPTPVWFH

Another experiment concerns the target FcgRIIIa F (human, UniProt P08637).

Sequence of FcgRIIIa F (P08637 17-208): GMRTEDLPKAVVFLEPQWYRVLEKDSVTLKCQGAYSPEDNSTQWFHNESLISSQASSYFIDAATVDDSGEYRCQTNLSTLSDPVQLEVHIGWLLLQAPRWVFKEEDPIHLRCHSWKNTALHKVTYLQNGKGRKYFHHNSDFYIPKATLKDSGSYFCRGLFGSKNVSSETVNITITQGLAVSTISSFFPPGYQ
Sequence of FcgRIIIa V (P08637 17-208 F176V): as the sequence (P08637 17-208) above, with F160V counted along it

B1: H240-FA021/H240-FB083/L73-k0 (antibody)
chain 1: QDQLVQSGAEVKKPGASVKVSCKASGFNIKDTYIQWVRQAPGQGLEWMGRIDPLRKQTKYREKFEGRVTITADTSTNTAYMELSSLRSEDTAVYYCVRSGREFDYWGQGTLVTVSSASTKGPSVFPLAPSSKSTSGGTAALGCLVKDYFPEPVTVSWNSGALTSGVHTFPAVLQSSGLYSLSSVVTVPSSSLGTKTYTCNVNHKPSNTKVDKKVEPKSCDKTHTCPPCPAPEYYWGPSVFLFPPKPKDTLMISRTPEVTCVVVDVSDEEPEVKFNWYVDGVEVHNAKTKPREEQYNATYRVVSVLTVLHQDWLNGKEYKCKVSNKALPAPIEKTISKAKGQPREPQVYTLPPSRKEKTKNQVSLTCLVKGFYPSDIAVEWESNGQPENNYKTTPPKLDSDGSFFLYSKLTVDKSRWQQGNVFSCSVMHEALHNRYTQKSLSLSP
chain 2: QDQLVQSGAEVKKPGASVKVSCKASGFNIKDTYIQWVRQAPGQGLEWMGRIDPLRKQTKYREKFEGRVTITADTSTNTAYMELSSLRSEDTAVYYCVRSGREFDYWGQGTLVTVSSASTKGPSVFPLAPSSKSTSESTAALGCLVEDYFPEPVTVSWNSGALTSGVHTFPAVLQSSGLYSLSSVVTVPSSNFGTQTYTCNVDHKPSNTKVDKTVEPKSCDKTHTCPPCPAPELLGGPSVFLFPPKPKDTLMISRTPEVTCVVVDVSHEEPEVQFNWYVDGVEVHNAETKPREEQYNSTYRVVSVLTVLHQDWLNGKEYKCKVSNDALPMPIEETISKAKGQPREPQVYTLPPSREEMTKNQVSLTCLVKGFYPSDIAVEWESNGQPENNYKTTPPVLDSDGSFFLYSKLTVDKSRWQQGNVFSCSVMHEALHNHYTQESLSLSP
chain 3: DIQMTQSPSSLSASVGDRVTITCRASQDIHKYIAWYQQKPGQAPRLLIQYTSTLQPGVPSRFSGSGSGTDYTFTISSLQPEDIATYYCLQYEQLRTFGGGTKVEIKRTVAAPSVFIFPPSDEQLKSGTASVVCLLNNFYPREAKVQWKVDNALQSGNSQESVTEQDSKDSTYSLSSTLTLSKADYEKHKVYACEVTHQGLSSPVTKSFNRGEC
As to B1, the Kd (usually the equilibrium constant for the complex coming apart) with FcgRIIa R came to 240 nM; with FcgRIIIa V, 1.4 nM; with FcgRIIa H it was 69 nM; in the experiment with FcgRIIb, 1300 nM; with FcgRIa, 0.078 nM; in the experiment with FcgRIIIa F it was 3.9 nM.

B2: H240-FA024/H240-FB059/L73-k0 (antibody)
chain 1: QDQLVQSGAEVKKPGASVKVSCKASGFNIKDTYIQWVRQAPGQGLEWMGRIDPLRKQTKYREKFEGRVTITADTSTNTAYMELSSLRSEDTAVYYCVRSGREFDYWGQGTLVTVSSASTKGPSVFPLAPSSKSTSGGTAALGCLVKDYFPEPVTVSWNSGALTSGVHTFPAVLQSSGLYSLSSVVTVPSSSLGTKTYTCNVNHKPSNTKVDKKVEPKSCDKTHTCPPCPAPEYYWGPSVFLFPPKPKDTLMISRTPEVTCVVVDVSDEEPKVKFNWYVDGVEVHNAKTKPREEQYNATYRVVSVLTVLHQDWLNGKEYKCKVSNKALPAPIEKTISKAKGQPREPQVYTLPPSRKEKTKNQVSLTCLVKGFYPSDIAVEWESNGQPENNYKTTPPVLDSDGSFFLYSKLTVDKSRWQQGNVFSCSVMHEALHNRYTQKSLSLSP
chain 2: QDQLVQSGAEVKKPGASVKVSCKASGFNIKDTYIQWVRQAPGQGLEWMGRIDPLRKQTKYREKFEGRVTITADTSTNTAYMELSSLRSEDTAVYYCVRSGREFDYWGQGTLVTVSSASTKGPSVFPLAPSSKSTSGETAALGCLVEDYFPEPVTVSWNSGALTSGVHTFPAVLQSSGLYSLSSVVTVPSSSLGTQTYICNVNHKPSNTKVDKKVEPKSCDKTHTCPPCPAPELLGGPSVFLFPPKPKDTLMISRTPEVTCVVVDVSHEEPEVQFNWYVDGVEVHNAETKPREEQYNSTYRVVSVLTVLHQDWLNGKEYKCKVSNDALPMPIEETISKAKGQPREPQVYTLPPSREEMTKNQVSLTCLVKGFYPSDIAVEWESNGQPENNYKTTPPVLDSDGSFFLYSKLTVDKSRWQQGNVFSCSVMHEALHNHYTQESLSLSP
chain 3: DIQMTQSPSSLSASVGDRVTITCRASQDIHKYIAWYQQKPGQAPRLLIQYTSTLQPGVPSRFSGSGSGTDYTFTISSLQPEDIATYYCLQYEQLRTFGGGTKVEIKRTVAAPSVFIFPPSDEQLKSGTASVVCLLNNFYPREAKVQWKVDNALQSGNSQESVTEQDSKDSTYSLSSTLTLSKADYEKHKVYACEVTHQGLSSPVTKSFNRGEC
With B2, the Kd with FcgRIIa R was found to be 290 nM; in the experiment with FcgRIIIa V it was 1.3 nM; in the experiment with FcgRIIa H, 93 nM; in the experiment with FcgRIIb, 1600 nM; with FcgRIa, 0.089 nM; with FcgRIIIa F it was 4.4 nM.

B3: H240-FA024/H240-FB065/L73-k0 (antibody)
chain 1: QDQLVQSGAEVKKPGASVKVSCKASGFNIKDTYIQWVRQAPGQGLEWMGRIDPLRKQTKYREKFEGRVTITADTSTNTAYMELSSLRSEDTAVYYCVRSGREFDYWGQGTLVTVSSASTKGPSVFPLAPSSKSTSGGTAALGCLVKDYFPEPVTVSWNSGALTSGVHTFPAVLQSSGLYSLSSVVTVPSSSLGTKTYTCNVNHKPSNTKVDKKVEPKSCDKTHTCPPCPAPEYYWGPSVFLFPPKPKDTLMISRTPEVTCVVVDVSDEEPKVKFNWYVDGVEVHNAKTKPREEQYNATYRVVSVLTVLHQDWLNGKEYKCKVSNKALPAPIEKTISKAKGQPREPQVYTLPPSRKEKTKNQVSLTCLVKGFYPSDIAVEWESNGQPENNYKTTPPVLDSDGSFFLYSKLTVDKSRWQQGNVFSCSVMHEALHNRYTQKSLSLSP
chain 2: QDQLVQSGAEVKKPGASVKVSCKASGFNIKDTYIQWVRQAPGQGLEWMGRIDPLRKQTKYREKFEGRVTITADTSTNTAYMELSSLRSEDTAVYYCVRSGREFDYWGQGTLVTVSSASTKGPSVFPLAPSSKSTSESTAALGCLVKDYFPEPVTVSWNSGALTSGVHTFPAVLQSSGLYSLSSVVTVPSSNFGTQTYTCNVDHKPSNTKVDKTVEPKSCDKTHTCPPCPAPELLGGPSVFLFPPKPKDTLMISRTPEVTCVVVDVSHEEPEVQFNWYVDGVEVHNAETKPREEQYNSTYRVVSVLTVLHQDWLNGKEYKCKVSNDALPMPIEETISKAKGQPREPQVYTLPPSREEMTKNQVSLTCLVKGFYPSDIAVEWESNGQPENNYKTTPPVLDSDGSFFLYSKLTVDKSRWQQGNVFSCSVMHEALHNHYTQESLSLSP
chain 3: DIQMTQSPSSLSASVGDRVTITCRASQDIHKYIAWYQQKPGQAPRLLIQYTSTLQPGVPSRFSGSGSGTDYTFTISSLQPEDIATYYCLQYEQLRTFGGGTKVEIKRTVAAPSVFIFPPSDEQLKSGTASVVCLLNNFYPREAKVQWKVDNALQSGNSQESVTEQDSKDSTYSLSSTLTLSKADYEKHKVYACEVTHQGLSSPVTKSFNRGEC
B3: the equilibrium dissociation constant (Kd) with FcgRIIa R came to 300 nM; in the experiment with FcgRIIIa V, 1.4 nM; with FcgRIIa H, 95 nM; with FcgRIIb, 1700 nM; with FcgRIa it was 0.15 nM; in the experiment with FcgRIIIa F it was 5 nM.

B4: H240-FA009/H240-FB033/L73-k0 (antibody)
chain 1: QDQLVQSGAEVKKPGASVKVSCKASGFNIKDTYIQWVRQAPGQGLEWMGRIDPLRKQTKYREKFEGRVTITADTSTNTAYMELSSLRSEDTAVYYCVRSGREFDYWGQGTLVTVSSASTKGPSVFPLAPSSKSTSGGTAALGCLVKDYFPEPVTVSWNSGALTSGVHTFPAVLQSSGLYSLSSVVTVPSSSLGTKTYICNVNHKPSNTKVDKKVEPKSCDKTHTCPPCPAPEYYWGPSVFLFPPKPKDTLMISRTPEVTCVVVDVSDEEPEVKFNWYVDGVEVHNAKTKPREEQYNATYRVVSVLTVLHQDWLNGKEYKCKVSNKALPAPIEKTISKAKGQPREPQVYTLPPSRKEMTKNQVSLTCLVKGFYPSDIAVEWESNGQPENNYKTTPPVLDSDGSFFLYSKLTVDKSRWQQGNVFSCSVMHEALHNRYTQKSLSLSP
chain 2: QDQLVQSGAEVKKPGASVKVSCKASGFNIKDTYIQWVRQAPGQGLEWMGRIDPLRKQTKYREKFEGRVTITADTSTNTAYMELSSLRSEDTAVYYCVRSGREFDYWGQGTLVTVSSASTKGPSVFPLAPSSKSTSGETAALGCLVKDYFPEPVTVSWNSGALTSGVHTFPAVLQSSGLYSLSSVVTVPSSSLGTQTYICNVNHKPSNTKVDKKVEPKSCDKTHTCPPCPAPELLGGPSVFLFPPKPKDTLMISRTPEVTCVVVDVSHEEPEVQFNWYVDGVEVHNAKTKPREEQYNSTYRVVSVLTVLHQDWLNGKEYKCKVSNDALPMPIEETISKAKGQPREPQVYTLPPSREEMTKNQVSLTCLVKGFYPSDIAVEWESNGQPENNYKTTPPVLDSDGSFFLYSKLTVDKSRWQQGNVFSCSVMHEALHNHYTQESLSLSP
chain 3: DIQMTQSPSSLSASVGDRVTITCRASQDIHKYIAWYQQKPGQAPRLLIQYTSTLQPGVPSRFSGSGSGTDYTFTISSLQPEDIATYYCLQYEQLRTFGGGTKVEIKRTVAAPSVFIFPPSDEQLKSGTASVVCLLNNFYPREAKVQWKVDNALQSGNSQESVTEQDSKDSTYSLSSTLTLSKADYEKHKVYACEVTHQGLSSPVTKSFNRGEC
For B4, the Kd with FcgRIIa R worked out at 310 nM; with FcgRIIIa V, 1 nM; with FcgRIIa H, 80 nM; in the experiment with FcgRIIb it was 1600 nM; with FcgRIa, 0.12 nM; in the experiment with FcgRIIIa F it was 3.4 nM.
